Among the data in publication doi:10.1101/2020.02.05.935528 are stoichiometry N values, retold here.

The target in this test is Nitrosopumilus maritimus 4-hydroxybutyryl-CoA dehydratase (Nitrosopumilus maritimus). Put plainly: crystal structure.

For the substance “Nitrosopumilus maritimus 4-hydroxybutyryl-CoA dehydratase (enzyme)”, the stoichiometry N (as a rule, the number of molecules, sites or subunits per partner or assembly) is 4.
